Measurements: US10760049B2, “Generation of neural stem cells from undifferentiated human embryonic stem cells” (ES Cell International PTE Ltd., priority 2002, dated 2020)

What was measured:
[1] = tested on: hES cell derived neural progenitors; assay: Directed differentiation of neural progenitors towards a midbrain fate; scoring of TH+ clumps and TH+ neurons; assay type: cell-based, human; details: for effect on the proportion of TH+ clumps: added at 10 ng/ml to IBMX, Forskolin, PMA, dopamine and AA
Description: Neurospheres that were generated from noggin treated ES cell colonies as described above (Example 1) were propagated 21-35 days in NPM supplemented with FGF-2 and EGF. At this point the spheres were chopped into small clumps (2000-3000 cells per clump). FGF-2 and EGF were removed from the medium and the progenitors were directed to take a midbrain fate by treatment with various factors for 6-8 days. During treatment with the various factors the clumps were either cultured in suspension or plated on poly-D-lysine and laminin. The factors included. FGF1, FGF8, FGF17 (R&D Systems) at concentrations of 100-200 ng/ml SHH (R&D Systems) at 0.5-1 μg/ml. Other signal transduction inducers: cAMP inducers: IBMX (Sigma, 0.25 mM), forskolin (Sigma 50 μM), PKC inducers PMA (Sigma 200 nM) and dopamine (Sigma 20 μM) were also used. The medium was also supplemented with the survival factors Ascorbic acid (AA) (Sigma) at concentration of 400-800 μM and NT4 (R&D Systems) at concentration of 20 ng/ml. The medium was changed every other day. To induce further differentiation into neurons, the spheres were again disaggregated into small clumps and plated on poly-D-lysine (30-70 kDa. 10 μg/ml, Sigma) and laminin (4 μg/ml, Sigma) and cultured in NPM in the absence of the factors and in the presence of AA with or without NT4 for 5-10 days. Differentiated cells were analysed by indirect immunofluorescence (as described in example 1) for the expression of β-tubulin type III (Sigma, 1:1000-3000) Tyrosine hydroxylase (TH) (Sigma anti mouse monoclonal, 1:250-500 and Pel-Freez anti rabbit polyclonal, 1:50-100) dopamine transporter (DAT;_Chemicon; rabbit polyclobal 1:50-100) and Nurr1 (Santa Cruz, Calif.; rabbit poly clonal 1:100-200). The proportion of clumps of cells that were comprised of a significant number of TH+ cells (>50 cells) was scored. Double immunostaining for TH and β-tubulin type III was used to analyse the percentage of cells within clumps expressing TH from the total number of neurons β-tubulin type III+cells). Multiple confocal microscopy images of consecutive planes through the clump were projected into one image for this analysis (FIG. 14) Ten-fifteen random fields were analysed.

[2] = tested on: human ES cells (HES-1 cell line); assay: Noggin-directed differentiation of hES cell colonies on feeders; immunophenotype of derived spheres and rosette areas; assay type: cell-based
Method: To derive enriched preparations of neural progenitors, differentiation of human ES cells was directed into neural fate by transfer of undifferentiated hES cell clumps onto fresh feeders and culture in a modified hES cell medium with reduced serum concentration and in the presence of the BMP antagonist noggin. Specifically, human ES cells (HES-1 cell line, Reubinoff et al 2000, PCT/AU99/00990) with a stable normal (46XX) karyotype were cultured on mitomycin C mitotically inactivated mouse embryonic fibroblast feeder layer in gelatine coated tissue culture dishes as previously described (Reubinoff et al., 2000 PCT/AU99/00990 and PCT/AU01/00278). To induce differentiation, at the usual passage, clumps of undifferentiated ES cells were plated on fresh feeders and cultured in the usual hES medium supplemented with 10% serum (instead of 20%) and 500 ng/ml of noggin (R&D systems). Noggin (500 ng/ml) was further added to the medium every other day throughout a 6-8 day culture period (3-4 administrations). After 6-8 days, noggin was omitted and the cells were further cultured in the modified medium with 10% serum for additional 4-6 days. At this time about 12-14 days, about 70% of the colonies differentiated mostly into areas that were comprised of tightly packed small cells with a uniform grey opaque appearance under dark field stereo microscope (FIG. 1a, PCT/AU01/00278, PCT/AU01/00735). Other colonies differentiated into areas with structures that could resemble primitive neural rosettes (FIG. 1b).
Clumps of about 150 cells were mechanically isolated by using the razor-sharp edge of a micro glass pipette or a razor blade from the grey opaque areas and replated in serum-free medium supplemented with human recombinant FGF-2 and EGF. Specifically, the clusters of cells were transferred to plastic tissue culture dishes containing neural progenitors growth medium (NPM) that consisted of DMEM/F12 (1:1), B27 supplementation (1:50), glutamine 2 mM, penicillin 50 u/ml and streptomycin 50 μg/ml (Gibco), and supplemented with 20 ng/ml human recombinant epidermal growth factor (EGF), and 20 ng/ml fibroblast growth factor 2 (FGF2) (R & D Systems, Inc., Minneapolis, Minn.). Under these culture conditions the clumps formed free floating spherical structures within 24 hours and sequential propagation and expansion of the sphere cultures was possible as previously described (Reubinoff at al., 2001, PCT/AU01/00278) for prolonged periods (6 months).
During the initial weeks in culture, the spheres gradually acquired a uniform morphology (FIG. 3 A,B). A detailed analysis of marker expression by the cell within the spheres was conducted at 3-4, 8 and 12 weeks after derivation. The spheres were disaggregated into single cells that were plated, fixed and analysed by fluorescent immunohistochemistry for the expression of the early neural markers N-CAM, A2B5, PSA-NCAM and nestin. A high proportion of the cells expressed these markers (N-CAM 83±4% A2B5 84±4%, nestin 69±6% PSA-NCAM 74±2%) and the level of expression was stable during the 12 weeks period.
The phenotype of cells within the areas with structures that could resemble primitive neural rosettes (FIG. 1b) was also analyzed. These areas were mechanically dissected, and disaggregated. The cells were plated on laminin and cultured in NPM for two days.
(§1) In general, for the immunophenotyping of disaggregated neural progenitor cells and differentiated neurons, fixation with 4% paraformaldehyde for 20 minutes at room temperature was used unless otherwise specified. It was followed by blocking with 5% heat inactivated goat serum (Dako) and permeabilization with 0.2% Triton X (Sigma) in PBS with 0.1% BSA for 30 minutes. Samples were incubated with the primary antibodies at room temperature for one hour. […]

[3] = tested on: undifferentiated human ES cell clumps; assay: hES cell clumps cultured in suspension in NPM+FGF2 with or without noggin; indirect immunofluorescence for neural and non-neural markers; assay type: cell-based; details: for proportion of cells expressing endodermal and mesodermal markers: noggin 350 and 700 ng/ml versus no noggin, then a week of differentiation
Method: In an alternative approach, undifferentiated human ES cell clumps of about 200 cells were transferred into NPM and cultured in suspension in the presence of noggin (350 and 700 ng/ml) for approximately 3 weeks. To further induce neural differentiation, proliferation and prevent the differentiation of neural progenitors the medium was also supplemented with human recombinant FGF-2 (20 ng/ml). LIF (10 ng/ml) was also included in the medium in early experiments. The media was replaced twice a week. Under these culture conditions the clumps of hES cells turned into round spheres within 7 days (FIG. 3 C,D).
To evaluate the effect of these culture conditions, we have evaluated the phenotype of cells within clumps following three weeks of culture. We have examined two concentrations of noggin (350 and 700 ng/ml) in comparison to culture in NPM supplemented with FGF2 in the absence of noggin. The clusters were disaggregated into single cells or small clumps that were plated, cultured for 4 hours on laminin, fixed and analysed by indirect immunofluorescence for the expression of the early neural markers nestin, A2B5 and N-CAM. Markers of endoderm (probably extraembryonic; low molecular weight (LMW) cytokeratin and laminin) and mesoderm (muscle specific actin and desmin) were examined after a week of differentiation. Immunofluorescence methods and source of antibodies are described below in section (C).
To analyse and differentiate between the effect of NPM supplemented with FGF2 and noggin on the differentiation of the hES cell clusters we have characterized and compared the differentiation of these clusters following culture in three different media (FIG. 5): (a) NPM supplemented with b-FGF and noggin (700 ng/ml), (b) the same medium without noggin and (c) knockout (KO) medium. After three weeks of culture a significant difference in the morphology of the clusters was observed. Clusters that were cultured in KO medium had the typical morphology of embryoid bodies (EBs, FIG. 5c). Clusters that were cultured in NPM and FGF2 were characterized by cystic structures and areas of dense cells resembling neural spheres (FIG. 5b). Clusters that were cultured in the presence of noggin had the typical morphology of neural spheres without cystic structures (FIG. 5a).
Clusters that were cultured in NPM with (FIG. 5a) or without noggin (FIG. 5b) were further cultured for an additional 3 weeks in NPM supplemented with FGF2 in the absence of noggin (FIG. 5).
To characterize and compare the phenotype of cells within the clusters following differentiation and propagation at the various culture conditions (FIG. 5), the clusters were disaggregated after 3 weeks in culture into single cells or small clumps that were plated, cultured for 4 hours on laminin, fixed and analysed for the expression of the early neural markers nestin, A2B5, N-CAM, PSA-NCAM and β-tubulin III (FIG. 6). The same analysis was done after additional 3 weeks of culture in NPM supplemented with FGF2 (FIG. 7).
The percentage of cells within the clumps that expressed non-neural markers at 3 weeks (FIG. 8) and 6 weeks (FIG. 9) of the same floating cultures as above was analysed. Indirect immuno fluorescence analysis of the expression of non-neural markers was performed following disaggregation of the clumps and one week of differentiation on laminin.
as §1

[4] = tested on: undifferentiated human ES cell clumps; assay: RT-PCR of non-neural marker transcripts in noggin treated hES cell clumps; assay type: cell-based
Method: At the RNA level, RT-PCR analysis confirmed that in the noggin treated clumps the expression of the endodermal (probably extraembryonic) marker alpha-fetal protein was reduced/undetectable at 3 weeks. This marker was also undetectable at 6 weeks.
RT-PCR was performed as previously described (Reubinoff et al., 2001). Primer sequences (forward and reverse) and the length of amplified products were as previously described (Reubinoff et al 2001) for alpha-feto-protein and HNF3a and as follows for keratin 8: […]

[5] = spheres derived from noggin treated colonies, 3-4, 8 and 12 weeks after derivation
[6] = three weeks in NPM+FGF2+noggin (700 ng/ml)

Molecule: O=C1O[C@H]([C@@H](O)CO)C(O)=C1O [ascorbic acid, reference compound]
- percentage of TH+ neurons from the total number of neurons (β-tubulin type III+ cells) ([1]; confocal microscopy, cellular level): 45%
- proportion of TH+ clumps (clumps with >50 TH+ cells) ([1]; factors for 6-8 days after removal of FGF-2 and EGF, then differentiation on poly-D-lysine and laminin with AA): 35%

Molecule: FGF-1: fibroblast growth factor FGF1 (R&D Systems)
- effect on the proportion of TH+ clumps [1]: did not increase

B1: FGF-8: fibroblast growth factor FGF8 (R&D Systems) (protein, UniProt P55075 23-233, looked up)
Fibroblast growth factor 8: QEGPGRGPALGRELASLFRAGREPQGVSQQHVREQSLVTDQLSRRLIRTYQLYSRTSGKHVQVLANKRINAMAEDGDPFAKLIVETDTFGSRVRVRGAETGLYICMNKKGKLIAKSNGKGKDCVFTEIVLENNYTALQNAKYEGWYMAFTRKGRPRKGSKTRQHQREVHFMKRLPRGHHTTEQSLRFEFLNYPPFTRSLRGSQRTWAPEPR
- effect on the proportion of TH+ clumps [1]: did not increase

B2: noggin: BMP antagonist noggin (R&D systems) (protein, UniProt Q13253 28-232, looked up)
Noggin: QHYLHIRPAPSDNLPLVDLIEHPDPIFDPKEKDLNETLLRSLLGGHYDPGFMATSPPEDRPGGGGGAAGGAEDLAELDQLLRQRPSGAMPSEIKGLEFSEGLAQGKKQRLSKKLRRKLQMWLWSQTFCPVLYAWNDLGSRFWPRYVKVGSCFSKRSCSVPEGMVCKPSKSVHLTVLRWRCQRRGGQRCGWIPIQYPIISECKCSC
- cells expressing N-CAM and nestin ([2]; areas resembling primitive neural rosettes in noggin treated colonies, two days on laminin in NPM): 95-100%
- colonies differentiated mostly into areas of tightly packed small cells ([2]; noggin 500 ng/ml every other day for 6-8 days, 10% serum, on feeders, scored at about 12-14 days): about 70%
- cells expressing A2B5 [2, 5]: 84±4%
- cells expressing N-CAM [2, 5]: 83±4%
- cells expressing PSA-NCAM [2, 5]: 74±2%
- cells expressing nestin [2, 5]: 69±6%
- cells expressing non-neural markers ([3]; after additional 3 weeks of culture in NPM+FGF2 (6 weeks)): undetectable or rare
- percentage of cells expressing nestin and A2B5 versus NPM+FGF2 without noggin ([3]; noggin 700 ng/ml, three weeks): slightly higher
- proportion of cells expressing endodermal and mesodermal markers ([3]; three weeks): significantly reduced after noggin treatment in a dose dependent manner
- proportion of cells expressing endodermal and mesodermal markers ([3]; three weeks, listed as Noggin): reduced in a dose dependent manner
- percentage of cells expressing non-neural markers ([3]; noggin treated cultures after 3 weeks, one week of differentiation on laminin): significant reduction
- percentage of cells expressing A2B5 [3, 6]: 95.6%
- percentage of cells expressing NCAM [3, 6]: 73%
- percentage of cells expressing NCAM ([3]; three weeks in NPM+FGF2+noggin, then additional 3 weeks in NPM+FGF2): 93%
- expression of endodermal marker alpha-fetal protein (RT-PCR) ([4]; 3 weeks): reduced/undetectable
- expression of transcripts of epidermal marker keratin-14 (RT-PCR) ([4]; 3 weeks): significantly reduced
- expression of endodermal marker HNF3α (RT-PCR) ([4]; 6 weeks): reduced/undetectable
- expression of endodermal marker alpha-fetal protein (RT-PCR) ([4]; 6 weeks): undetectable
- expression of transcripts of epidermal marker keratin-14 (RT-PCR) ([4]; 6 weeks): undetectable
